Experimental data: the supplement of paper PMC7125110
± gives the standard error. Variants at the floor of the assay were thinned out.

B1: glmS ribozyme (parent)
chain: AUAAAAGCGCCAGAACUACAGAAAUGUAGUUGACGAGGAGGAGGUUUAUCGAAUUUUCGGCGGAUGCCUCCAAA

Assays:
Details in all cases: with glucosamine-6-phosphate
glucosamine-6-phosphate [1] = variants of: B1; assay: self-cleavage kobs at 40 uM GlcN6P; higher = faster cleavage; RNA array
Summary of the method: (§1)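 Tracking of barcoded ribozyme variants used a hybridised Cy3 probe at 37 °C, after in situ transcription by E. coli RNA polymerase on sequenced MiSeq chips. The flowed solution held 40 μM to 10 mM glucosamine-6-phosphate in HEPES/KCl/Mg(OAc)2 buffer, and imaging ran over ~14 h. kobs was taken from exponential decay fits of normalised per-tile medians, and kcat and KM from weighted Michaelis–Menten fits.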

glucosamine-6-phosphate [2] = variants of: B1; assay: self-cleavage kobs at 160 uM GlcN6P; higher = faster cleavage; RNA array
Summary of the method: as §1

glucosamine-6-phosphate [3] = variants of: B1; assay: self-cleavage kobs at 640 uM GlcN6P; higher = faster cleavage; RNA array
Summary of the method: as §1

glucosamine-6-phosphate [4] = variants of: B1; assay: self-cleavage kobs at 2500 uM GlcN6P; higher = faster cleavage; RNA array
Summary of the method: as §1

glucosamine-6-phosphate [5] = variants of: B1; assay: self-cleavage kobs at 10000 uM GlcN6P; higher = faster cleavage; RNA array
Summary of the method: as §1

Variant	self-cleavage kobs at 40 uM GlcN6P (glucosamine-6-phosphate [1]) [s⁻¹]	self-cleavage kobs at 160 uM GlcN6P (glucosamine-6-phosphate [2]) [s⁻¹]	self-cleavage kobs at 640 uM GlcN6P (glucosamine-6-phosphate [3]) [s⁻¹]	self-cleavage kobs at 2500 uM GlcN6P (glucosamine-6-phosphate [4]) [s⁻¹]	self-cleavage kobs at 10000 uM GlcN6P (glucosamine-6-phosphate [5]) [s⁻¹]
A15C C70U	0.000192 ± 1.8e-05	0.000389 ± 4.7e-05	0.000719 ± 7.7e-05	0.00537 ± 0.0012	0.00871 ± 0.0019
G9C C11A	< 1e-05	< 1e-05	–	–	–
G13C C16A G37U	< 1e-05	–	–	–	< 1e-05
A33G C58U	< 1e-05	–	–	< 1e-05	< 1e-05
C11A G60U	< 1e-05	< 1e-05	< 1e-05	< 1e-05	< 1e-05
A39G G40A	0.000261 ± 8e-05	–	0.00167 ± 0.00076	0.00889 ± 0.0023	–
A14U A33G G38U C71A	< 1e-05	–	–	–	–
G29U C34U A42C	< 1e-05	< 1e-05	< 1e-05	< 1e-05	< 1e-05
A15G U54A C71A	0.000174 ± 5.4e-05	–	–	–	0.00522 ± 0.0014
G13C G43A G63A A64G	< 1e-05	–	–	–	< 1e-05
G7U U45C	< 1e-05	< 1e-05	< 1e-05	< 1e-05	< 1e-05
A6U G62A	< 1e-05	< 1e-05	–	–	–
A12C U45A C58G C67G	< 1e-05	–	–	–	–
G44U G60C	< 1e-05	< 1e-05	< 1e-05	< 1e-05	< 1e-05
C10U G13C G40A	< 1e-05	< 1e-05	–	–	–
U31C U49A A64U	< 1e-05	–	–	–	< 1e-05
C34G G38A C58U	< 1e-05	–	–	–	–
G7U G44C	< 1e-05	< 1e-05	< 1e-05	< 1e-05	< 1e-05
C11U A64C	< 1e-05	–	–	–	< 1e-05
A33G C34A	< 1e-05	–	–	–	< 1e-05
C10U G37C G44U U65C	< 1e-05	< 1e-05	< 1e-05	< 1e-05	–
A14U U55G C61G	< 1e-05	–	–	–	< 1e-05
G29C G35U C58U	< 1e-05	–	–	–	–

Variant	self-cleavage kobs at 40 uM GlcN6P (glucosamine-6-phosphate [1]) [s⁻¹]	self-cleavage kobs at 160 uM GlcN6P (glucosamine-6-phosphate [2]) [s⁻¹]	self-cleavage kobs at 640 uM GlcN6P (glucosamine-6-phosphate [3]) [s⁻¹]	self-cleavage kobs at 2500 uM GlcN6P (glucosamine-6-phosphate [4]) [s⁻¹]	self-cleavage kobs at 10000 uM GlcN6P (glucosamine-6-phosphate [5]) [s⁻¹]
A42G G51A A52U	< 1e-05	–	–	< 1e-05	–
C19A A33G A36G G40A A42G G62U G63A C71A	< 1e-05	–	–	< 1e-05	–
G44U U57A U69A	< 1e-05	< 1e-05	< 1e-05	–	< 1e-05
U47A C58U	< 1e-05	–	–	–	6e-05 ± 2.1e-05
A53C U56C	< 1e-05	–	–	0.000121 ± 2e-05	–
A12U G38C A52G C58A	< 1e-05	–	–	–	–
C8G U45C	< 1e-05	< 1e-05	< 1e-05	< 1e-05	< 1e-05
A33C G60U	< 1e-05	< 1e-05	< 1e-05	–	< 1e-05
A53U C71G	9.68e-05 ± 1.3e-05	0.000213 ± 7e-05	0.000283 ± 4.7e-05	0.000247 ± 5.4e-05	0.00158 ± 0.00036
A12G U47A G60A	< 1e-05	< 1e-05	< 1e-05	–	–
A14G A53C C71U	0.000387 ± 8.7e-05	–	0.00168 ± 0.00056	0.00736 ± 0.003	0.00798 ± 0.002
G40C A48C	< 1e-05	< 1e-05	< 1e-05	–	–
G9A U57G C67U	< 1e-05	–	–	–	< 1e-05
A39C G43C U47C U49C A64U U65A	< 1e-05	–	–	–	–
G35C G62A	< 1e-05	< 1e-05	< 1e-05	< 1e-05	< 1e-05
A36U C70G	3.74e-05 ± 8.5e-06	2.91e-05 ± 1.4e-05	0.000403 ± 6.8e-05	–	–
C10G A52G	< 1e-05	–	–	< 1e-05	< 1e-05
A39G C68G	2.98e-05 ± 1.4e-05	6.43e-05 ± 1.3e-05	0.000165 ± 5e-05	0.000286 ± 4.7e-05	0.000116 ± 1.2e-05
C34A G37C G60U	< 1e-05	–	–	–	< 1e-05
C34U G40A	< 1e-05	–	–	< 1e-05	< 1e-05
G43U U46A U57C C70A	< 1e-05	–	< 1e-05	–	< 1e-05
A12G G41U A52G U54A	< 1e-05	–	–	–	–
G51C G63A	< 1e-05	< 1e-05	–	< 1e-05	–
